Tested on: MS2 coat protein
Experiment: apparent KD of MS2 coat protein; designed switch direction (-1 OFF switch, 1 ON switch): -1; higher = weaker reporter binding
Outline: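 Transcription of designed RNA switches on Illumina chips was done by stalled E. coli RNA polymerase. SNAP-549-labelled MS2 coat protein was then titrated in doubling steps from 0.7 or 1.5 nM to 3 µM, with steps of 0.8–1.5 h at the lowest and 10–20 min at the highest concentration. The per-design median over clusters of curve-fitted normalised fluorescence is reported as apparent KD.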

[1] = input ligand: microRNA oligo, concentration not stated
[2] = Eterna round: R95, input ligand: microRNA oligo, concentration not stated

Row | Sequence | apparent KD of MS2 coat protein (input ligand: FMN 200 uM) [nM] | apparent KD of MS2 coat protein (input ligand: none) [nM] | other results
1 | ACAUGAGGAUCACCCAUGUUUGGCUGGUUUUCUCCGGCUGUCGAGGAUAUAGUACGGUAUCCGCGCUAGAAGGUGAGGGCCGGC [Aenatbe mod 1] (Eterna round: R96, puzzle: Exclusion NG 3) | 15.5 | 15.8 | apparent KD of MS2 coat protein [1]: 14.3 nM
2 | AAUACAAGCUAUUGAUCCCACAUGAGGAUCACCCAUGUAGCUGGCCGUGAGACCAGCUUUACAAUAGCUCGUCUUAU [Sensor-V1 #49] (Eterna round: R97, puzzle: Sensor, turn-off variant 1) | 75.2 | 71.3 | –
3 | CAGUACUGAGGAUAUACAUGAGGAUCACCCAUGUGUCUUCUCCUAGGAAACUAGGUAUGUAGAAGGCAGUACUG [Omei Ex3 Mod of Eli 4.27 v1] (Eterna round: R97, puzzle: Exclusion 3) | 1370 | 40 | –
4 | AGAGUAAUGCGAGGAUAUACAUGAGGAUCACCCAUGUGGUGGUGUGAGGCAAAGCCUCACACCAUGUAGAAGGCGCAUUACUCA [Mat - Exclusion NG 2 - Mod of JL - D21] (Eterna round: R96, puzzle: Exclusion NG 2) | 155 | 39.3 | apparent KD of MS2 coat protein [1]: 35.2 nM
5 | GUCACAUGGACAUAGGAUCACAUGAGGAUCACCCAUGUGACUAACAAGCUUUUUGCUCGUCUUAUGUCUAUGUGAAU [Stov1/16-A2] (Eterna round: R97, puzzle: Sensor, turn-off variant 1) | 14 | 14.3 | –
6 | AGGUAGUCAGGAUAUUAAGAGUAGCGGGAUAACGCUACGAGUGAGAAGGGACAUGAGGAUCACCCAUGUUUAUU [JR_Ex4_Sub070] (Eterna round: R97, puzzle: Exclusion 4) | 23 | 24.8 | –
7 | GCAGCGUAUGUAGGAUAUCGGUCAGUUUCUGAUCGAGAAGGACAUGAGGAUCACCCAUGUAUAUUCUAGCGUGAGCUAGGCUGC [JL ENG1 3.70] (Eterna round: R96, puzzle: Exclusion NG 1) | – | – | apparent KD of MS2 coat protein [1]: 14.3 nM
8 | AACUACUCUGUGAGGAUAUGCGAUCGUUGAUCAAAGCAGAAGGCACAUGAGGAUCACCCAUGUUCCUACGAGGG [Edatbiat] (puzzle: Brourd's mod of Exclusion 4) | – | – | apparent KD of MS2 coat protein [2]: 30.2 nM
9 | GGUGCGAGUGUGAGGAUAUGCUGGUCGUAAGAUCAGCAGAAGGCACAUGAGGAUCACCCAUGUGAAAACGUACC [Mat - Exclusion 4 - JL Mod - D75] (puzzle: Brourd's mod of Exclusion 4) | – | – | apparent KD of MS2 coat protein [2]: 18.8 nM
10 | CCGCAAAAUGAGGAUAUCGUAUCGGAUACGAUACGAGAAGGCGUAACAUGAGGAUCACCCAUGUGUCCUAGCGG [Fiskers Ex 6 - 35] (puzzle: Exclusion 6) | – | – | apparent KD of MS2 coat protein [2]: 13.5 nM
11 | UGCGGUAGAGGAUAUACGUAGAAUUAGAUUCAUGUAAAACUACAUGAGGAUCACCCAUGUAGAAGGCUAUCGCU [JL-ex2-4.31 Eli mod] (Eterna round: R97, puzzle: Exclusion 2) | 102 | 19.3 | –
12 | UUUUUCGUUUAAGCUUCGUACAUGAGGAUCACCCAUGUUUUUAGUUCUGUGUUGGUCAGUAUGGAAGUUCGUCUUAU [JR_SV3TOV1_Sub089] (puzzle: Sensor v3, turn-off variant 1) | – | – | apparent KD of MS2 coat protein (Eterna round: R95, input ligand: FMN 200 uM): 325 nM; apparent KD of MS2 coat protein [2]: 166 nM; apparent KD of MS2 coat protein (Eterna round: R95, input ligand: none): 371 nM
13 | GCCUUAUCUGUCAGGAUAUACAAUAAAAUUUUUUUGUAGAAGGGACAUGAGGAUCACCCAUGUACAUUACAUUG [alecazam22] (Eterna round: R97, puzzle: Brourd's mod of Exclusion 4) | 315 | 49.7 | –
14 | UAGUAAAAGGUGAGGAUAUCCGCAAUAAAACGUGAGGAGAAGGCACAUGAGGAUCACCCAUGUAGGGUAUCAAA [BmEX4 A.17] (Eterna round: R97, puzzle: Brourd's mod of Exclusion 4) | 421 | 450 | –
15 | CCCGAGCUAGGAUAUGCACAAGGUAUCGAUCCACAACACACACAUGAGGAUCACCCAUGUAGAAGGAGCAUCGU [Eternabot (L2) Solution 27] (Eterna round: R97, puzzle: Exclusion 2) | 165 | 77.9 | –
16 | UUUUAACAUGAGGAUCACCCAUGUGAGGAUAUCGAAAUUUAUAUUUAUAUUAAUUAUUCGAGAAGGCACAUUUU [JMF 85] (puzzle: Exclusion 1) | – | – | apparent KD of MS2 coat protein [2]: 131 nM
17 | UACAUGAGGAUCACCCAUGUUUUGUCGUGUAUGGUAUUUAUCUAGGAUAUCAAUUUAGUUAUUUAUGAGAAGGAGAAUAUUAAU [JMF's solution 18] (Eterna round: R96, puzzle: Exclusion NG 3) | 33.6 | 43.1 | apparent KD of MS2 coat protein [1]: 32.8 nM
18 | GAUUAACAUGAGGAUCACCCAUGUGAGGAUAUGGACUUGCCCACUUAACCAUUAGAGUCUAGAAGGCGCAUCUG [1986#25] (Eterna round: R97, puzzle: Exclusion 1) | 32.9 | 29.8 | –

Row | Sequence | apparent KD of MS2 coat protein (input ligand: FMN 200 uM) [nM] | apparent KD of MS2 coat protein (input ligand: none) [nM] | other results
19 | GUUGGAUGAGGAUAUCGAGGUUAGUACAUGAGGAUCACCCAUGUUAUCCAGGUGUCGGUUCGAGAAGGCAUUGGAC [LRO-Ex5-14] (Eterna round: R96, puzzle: Exclusion 5) | 104 | 34.7 | apparent KD of MS2 coat protein [1]: 27.8 nM
20 | CCCGUGUUAGGAUAUACGGCACACCCACCAGCGGGUGUAUAGUAGAAGGAACAUGAGGAUCACCCAUGUAUAAC [Inardiza] (puzzle: Exclusion 4) | – | – | apparent KD of MS2 coat protein [2]: 32.4 nM
21 | ACAUGAGGAUCACCCAUGUUUAUUGGGUACUAUACUAUCAGCAAGGAUAUGCAAAUUUUUUUUACGCAGAAGGUGCAGGAACCU [JR_ExcNG3_Sub070] (Eterna round: R96, puzzle: Exclusion NG 3) | – | – | apparent KD of MS2 coat protein [1]: 355 nM
22 | CACGUACAGCAAGGAUAUCCAAAUGUUGAGCAUGGCCUAUCCAUACAUGAGGAUCACCCAUGUUCGGAGAAGGUGCAUGUAUCU [Enteinte] (Eterna round: R96, puzzle: Exclusion NG 2) | 11.2 | 12.8 | apparent KD of MS2 coat protein [1]: 9.96 nM
23 | ACGCUAUGAGGAUAUACAUGAGGAUCACCCAUGUCCCGAUGGUGUUUCCAUUGGAGACGUAGAAGGUAUGGUUA [Eternabot (L2) Solution 13] (Eterna round: R97, puzzle: Exclusion 3) | 169 | 172 | –
24 | AGUUAGAUAGGAUAUGCCCGAGAUAACAUGAGGAUCACCCAUGUGACCGAAUCUAUUCUAGCAGAAGGGUUUAUGA [Mod of ViennaUCT 19 - Jieux - Exclusion 5] (Eterna round: R97, puzzle: Exclusion 5) | 40.2 | 95 | –
25 | GCACAGACAGGAUAUACAUGAGGAUCACCCAUGUGACCCUUAUAGUACUCGCGUACAAGUAGAAGGGUCUGUGC [Omei Ex3 Model Bachelor's Dilema v32] (Eterna round: R97, puzzle: Exclusion 3) | 320 | 832 | –
26 | UCUUAUUGAGGAUAUACAUUAAAAUACAUGAGGAUCACCCAUGUUCUUCAAUGUAUAUAUGUAGAAGGCAGAAUAU [Mat - Exclusion 5 - JL Mod - D27] (Eterna round: R97, puzzle: Exclusion 5) | 61.2 | 28.8 | –
27 | UGAUUGAUUAACAGAUUAUACAUGAGGAUCACCCAUGUAGGUCCUACGUGCCCUUUAAGCAGCUCGUCUUAUUCCCA [Sensor-V1 #69] (Eterna round: R97, puzzle: Sensor, turn-off variant 1) | 43.7 | 45.6 | –
28 | CUGCUCCGUGUAGGAUAUGCGCGCACCCACCGCGCAGAAGGACAUGAGGAUCACCCAUGUAUGUUAUUAUCACGUGAGGCGCGG [Design 36] (Eterna round: R96, puzzle: Exclusion NG 1) | 31.9 | 33.1 | apparent KD of MS2 coat protein [1]: 17.7 nM
29 | UGGGUUGUUGUGAGGAUAUACUGUUUGUUUUGUUUGUAGAAGGUACAUGAGGAUCACCCAUGUUGGUUGUGGUU [JR_BME4_Sub031] (puzzle: Brourd's mod of Exclusion 4) | – | – | apparent KD of MS2 coat protein [2]: 204 nM
30 | GAUCAACAUGAGGAUCACCCAUGUGAGGAUAUGAUACUAUGUACUUCGGUACAUAGUAUCAGAAGGCACUAGGA [Ex1-3: 40] (puzzle: Exclusion 1) | – | – | apparent KD of MS2 coat protein [2]: 64 nM
31 | GUGUGCACGCUGCGAUCCUACAUGAGGAUCACCCAUGUGGUCUGGUGGCGUGGGUCACCGGACUUGGCUCGUCUUGA [salish99_S_TOV1_R5_069] (Eterna round: R97, puzzle: Sensor, turn-off variant 1) | 121 | 118 | –
32 | ACACAGCGAGGAUAUACAUGAGGAUCACCCAUGUGGCGGCCGUUACGGUAGCACUAGUGUAGAAGGCGCAUUGG [EX3 #35] (Eterna round: R97, puzzle: Exclusion 3) | 155 | 192 | –
33 | AUAAUGUAAGGAUAUCAGUCGUUAAUAAUUAAUUAAUCGACUGAGAAGGUACAUGAGGAUCACCCAUGUGAUCA [E4/8-B2] (Eterna round: R97, puzzle: Exclusion 4) | 44.1 | 1000 | –
34 | ACUUACUGAGGAUAUACAUAGAUUUACAUGAGGAUCACCCAUGUUCCUCUAAGUAUAUAUGUAGAAGGCAGAAGAG [Mat - Exclusion 5 - JL Mod - D40] (Eterna round: R97, puzzle: Exclusion 5) | 172 | 145 | –
35 | GUUGUCCUUGUAAGGAUAUCCGGAUAGAGCAUAUCGGAGAAGGUACAUGAGGAUCACCCAUGUCUCACCGUGCU [Eternabot (L1) Solution 95] (Eterna round: R97, puzzle: Brourd's mod of Exclusion 4) | 14.4 | 14.3 | –

Reference: the supplement of paper PMC9170038
